The values that follow are results of earlier work, collected in PMC6953883, “Alterations of aqueous humor Aβ levels in Aβ-infused and transgenic mouse models of Alzheimer disease” (PLoS ONE, 2020).

For this series the following is noted: previous studies.

Take “Aβ: amyloid-β peptide of cited efflux and retention studies; Shibata et al. used Aβ(1-40)”: the “half-time of Aβ efflux from CSF to blood” value is 34.63 min.
